From article PMC3695512, “Recognition of two distinct elements in the RNA substrate by the RNA-binding domain of the T. thermophilus DEAD box helicase Hera”

Columns and labels:
Hera_RBD_dC-tail = target: T1, Hera_RBD_dC-tail (Thermus thermophilus, UniProt O07897 424-491, del492-510); experiment: fluorescence anisotropy; 5 mM Mg2+; Anisotropy: 50 mM Tris/HCl pH 7.5, 150 mM NaCl, 5 mM MgCl2 (Fig 2), 25 C, 50 nM RNA; EMSA: same Tris/NaCl, 12% glycerol, 25 C; NMR: 25 mM Bis-Tris/HCl pH 6.0, 50 mM NaCl, 10% D2O, 37 C; details: protein: recombinant; label: 5'-fluorescein; hairpin with 5' single strand
T1 sequence: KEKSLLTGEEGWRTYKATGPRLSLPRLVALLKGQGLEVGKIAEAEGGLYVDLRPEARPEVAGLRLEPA

Hera_K463A = target: T2, Hera_K463A (Thermus thermophilus, UniProt O07897 1-510, K463A); experiment: as above; details: protein: recombinant; chain copies: 2; label: 5'-fluorescein; hairpin with 5' single strand
T2 sequence: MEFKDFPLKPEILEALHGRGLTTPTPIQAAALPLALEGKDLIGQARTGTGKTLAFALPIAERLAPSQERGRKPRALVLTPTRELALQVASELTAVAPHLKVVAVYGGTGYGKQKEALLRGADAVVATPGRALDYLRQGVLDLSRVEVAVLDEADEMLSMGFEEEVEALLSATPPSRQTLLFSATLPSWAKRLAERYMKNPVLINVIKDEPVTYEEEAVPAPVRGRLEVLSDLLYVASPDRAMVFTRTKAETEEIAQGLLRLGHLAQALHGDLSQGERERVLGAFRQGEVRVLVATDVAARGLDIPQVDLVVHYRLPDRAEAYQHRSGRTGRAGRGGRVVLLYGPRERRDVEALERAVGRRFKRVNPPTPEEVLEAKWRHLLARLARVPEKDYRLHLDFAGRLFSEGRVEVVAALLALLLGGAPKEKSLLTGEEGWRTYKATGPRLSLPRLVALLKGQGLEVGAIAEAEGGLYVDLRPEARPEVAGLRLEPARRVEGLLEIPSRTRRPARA

Hera full-length = target: T3, Hera full-length (Thermus thermophilus, UniProt O07897 1-510); experiment: fluorescence anisotropy; no ATP; 5 mM Mg2+; Anisotropy: 50 mM Tris/HCl pH 7.5, 150 mM NaCl, 5 mM MgCl2 (Fig 2), 25 C, 50 nM RNA; EMSA: same Tris/NaCl, 12% glycerol, 25 C; NMR: 25 mM Bis-Tris/HCl pH 6.0, 50 mM NaCl, 10% D2O, 37 C; details: protein: recombinant; chain copies: 2; label: 5'-fluorescein; hairpin with 5' single strand
T3 sequence: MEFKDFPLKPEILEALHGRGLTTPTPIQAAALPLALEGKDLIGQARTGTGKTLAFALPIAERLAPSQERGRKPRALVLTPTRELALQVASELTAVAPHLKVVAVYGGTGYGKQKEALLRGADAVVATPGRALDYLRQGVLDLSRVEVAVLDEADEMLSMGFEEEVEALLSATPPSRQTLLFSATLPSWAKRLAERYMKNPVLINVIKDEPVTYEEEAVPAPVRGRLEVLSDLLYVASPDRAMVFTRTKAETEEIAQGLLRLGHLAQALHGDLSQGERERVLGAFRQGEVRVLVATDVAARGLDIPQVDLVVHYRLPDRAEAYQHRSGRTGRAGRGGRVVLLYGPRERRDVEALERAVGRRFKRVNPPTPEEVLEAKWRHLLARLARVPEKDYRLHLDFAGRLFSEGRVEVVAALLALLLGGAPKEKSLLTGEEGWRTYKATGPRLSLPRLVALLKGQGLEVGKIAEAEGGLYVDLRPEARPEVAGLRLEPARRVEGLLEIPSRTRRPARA

GST-Hera_RBD = target: T4, GST-Hera_RBD (Thermus thermophilus, UniProt O07897 424-510); experiment: as above; details: protein: recombinant; tags: N-terminal GST; label: 5'-fluorescein; hairpin with 5' single strand
T4 sequence: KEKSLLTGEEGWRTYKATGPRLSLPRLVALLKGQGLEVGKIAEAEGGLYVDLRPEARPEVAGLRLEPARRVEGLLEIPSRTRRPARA

Hera_core = target: T5, Hera_core (Thermus thermophilus, UniProt O07897 1-369); experiment: as above; details: protein: recombinant; label: 5'-fluorescein; hairpin with 5' single strand
T5 sequence: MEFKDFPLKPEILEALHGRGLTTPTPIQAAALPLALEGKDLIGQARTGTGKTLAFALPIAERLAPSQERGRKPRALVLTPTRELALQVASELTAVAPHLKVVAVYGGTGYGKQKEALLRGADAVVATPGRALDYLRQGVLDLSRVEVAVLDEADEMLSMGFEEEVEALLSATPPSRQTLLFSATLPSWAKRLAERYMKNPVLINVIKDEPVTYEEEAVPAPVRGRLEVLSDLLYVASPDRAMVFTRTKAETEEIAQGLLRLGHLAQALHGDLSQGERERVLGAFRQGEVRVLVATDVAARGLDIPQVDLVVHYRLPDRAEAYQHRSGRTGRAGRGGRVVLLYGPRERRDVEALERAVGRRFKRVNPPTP

## GCAGGUCCCAAGGGUUGGGCUGUUCGCCCAUU (structured_RNA) [32mer]
Hera_RBD_dC-tail
  Kd: 13 µM
Hera_K463A
  Kd: 1000 ± 170 nM
Hera full-length
  Kd: 130 ± 70 nM
GST-Hera_RBD
  Kd: 450 ± 36 nM
Hera_core
  Kd: 1000 ± 180 nM
